In patent publication US20200121803A1 (published 2020):

Target: T1, human CD98, endogenously expressed on Molt-4 human acute lymphoblastic leukemia cells (human)
T1 chain: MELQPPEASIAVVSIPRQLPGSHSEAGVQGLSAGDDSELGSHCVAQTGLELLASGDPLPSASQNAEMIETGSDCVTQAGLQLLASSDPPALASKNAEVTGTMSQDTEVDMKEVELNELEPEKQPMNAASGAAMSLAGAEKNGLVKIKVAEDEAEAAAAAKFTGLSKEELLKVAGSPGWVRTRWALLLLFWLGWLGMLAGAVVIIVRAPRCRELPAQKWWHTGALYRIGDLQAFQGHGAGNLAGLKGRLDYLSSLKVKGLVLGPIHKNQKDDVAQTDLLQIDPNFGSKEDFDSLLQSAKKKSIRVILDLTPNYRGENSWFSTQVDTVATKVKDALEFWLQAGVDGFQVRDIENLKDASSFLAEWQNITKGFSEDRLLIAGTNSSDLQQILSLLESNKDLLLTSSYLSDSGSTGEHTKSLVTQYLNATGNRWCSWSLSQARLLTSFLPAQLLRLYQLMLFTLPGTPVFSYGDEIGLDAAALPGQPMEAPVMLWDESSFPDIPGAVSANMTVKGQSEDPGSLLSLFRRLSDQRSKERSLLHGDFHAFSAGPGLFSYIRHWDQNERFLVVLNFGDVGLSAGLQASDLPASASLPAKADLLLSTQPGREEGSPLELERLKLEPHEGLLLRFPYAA
Test: cell-based or functional assay

Binder	Molt4 IC50	% Cell Viability at 50 nM
CD98 (CL-huAb102)-TX (antibody, human IgG1, kappa, L234A L235A, V domains shown, synthon TX on reduced interchain cysteines (sites not given)) VH: EVQLVESGGGLVQPGGSLRLSCATSGFTFIDYYMSWVRQAPGKGLEWLGFIRNKANRYTTEYSASVKGRFTISRDNSKSILYLQMNSLKTEDTAVYYCTRDRPAWFVYWGQGTLVTVSS VL: DIVMTQTPLSLPVTPGEPASISCKSSQSLLYSSNQKNYLAWYLQKPGQSPQLLIYWASTRESGVPDRFSGSGSGTDFTLKISRVEAEDVGVYYCQQYYSYPYTFGGGTKVEIKR	0.05 nM	2.8%
CD98 (CL-huAb104)-TX (antibody, human IgG1, kappa, L234A L235A, V domains shown, synthon TX on reduced interchain cysteines (sites not given)) VH: EVQLVESGGGLVQPGGSLRLSCATSGFTFIDYYMSWVRQAPGKGLEWLGFIRNKAYGYTTEYSASVKGRFTISRDNSKSILYLQMNSLKTEDTAVYYCTRDRPAWFVYWGQGTLVTVSS VL: DIVMTQTPLSLPVTPGEPASISCKSSQSLLYSSNQKNYLAWYLQKPGQSPQLLIYWASTRESGVPDRFSGSGSGTDFTLKISRVEAEDVGVYYCQQYYSYPYTFGGGTKVEIKR	0.06 nM	4.3%
CD98 (CL-huAb102)-AAD (antibody, human IgG1, kappa, L234A L235A, V domains shown, synthon AAD on reduced interchain cysteines (sites not given)) VH: EVQLVESGGGLVQPGGSLRLSCATSGFTFIDYYMSWVRQAPGKGLEWLGFIRNKANRYTTEYSASVKGRFTISRDNSKSILYLQMNSLKTEDTAVYYCTRDRPAWFVYWGQGTLVTVSS VL: DIVMTQTPLSLPVTPGEPASISCKSSQSLLYSSNQKNYLAWYLQKPGQSPQLLIYWASTRESGVPDRFSGSGSGTDFTLKISRVEAEDVGVYYCQQYYSYPYTFGGGTKVEIKR	0.024 nM	2.2%
CD98 (CL-huAb102)-YY (antibody, human IgG1, kappa, L234A L235A, V domains shown, synthon YY on reduced interchain cysteines (sites not given)) VH: EVQLVESGGGLVQPGGSLRLSCATSGFTFIDYYMSWVRQAPGKGLEWLGFIRNKANRYTTEYSASVKGRFTISRDNSKSILYLQMNSLKTEDTAVYYCTRDRPAWFVYWGQGTLVTVSS VL: DIVMTQTPLSLPVTPGEPASISCKSSQSLLYSSNQKNYLAWYLQKPGQSPQLLIYWASTRESGVPDRFSGSGSGTDFTLKISRVEAEDVGVYYCQQYYSYPYTFGGGTKVEIKR	0.05 nM	3.1%
CD98 (CL-huAb104)-YY (antibody, human IgG1, kappa, L234A L235A, V domains shown, synthon YY on reduced interchain cysteines (sites not given)) VH: EVQLVESGGGLVQPGGSLRLSCATSGFTFIDYYMSWVRQAPGKGLEWLGFIRNKAYGYTTEYSASVKGRFTISRDNSKSILYLQMNSLKTEDTAVYYCTRDRPAWFVYWGQGTLVTVSS VL: DIVMTQTPLSLPVTPGEPASISCKSSQSLLYSSNQKNYLAWYLQKPGQSPQLLIYWASTRESGVPDRFSGSGSGTDFTLKISRVEAEDVGVYYCQQYYSYPYTFGGGTKVEIKR	0.03 nM	2.7%
CD98 (CL-huAb108)-AAA (antibody, human IgG1, kappa, L234A L235A, V domains shown, synthon AAA on reduced interchain cysteines (sites not given)) VH: EVQLVQSGAEVKKPGASVKVSCKASGFTFSDYTMAWVRQAPGQGLEWVATIIYSGRGTYYRDAVKGRFTITRDNSTSTLYLELSSLRSEDTAVYYCARQSDDTYYYWGYFDYWGQGTMVTVSS VL: DIVMTQTPLSLPVTPGEPASINCKSSQSLLFSGNQKNYLAWYLQKPGQSPQLLIYWASTRQSGVPDRFSGSGSGTDFTLKISRVEAEDVGIYYCQQYYDVPYTFGQGTKLEIKR	0.18 nM	2.9%
CD98 (CL-huAb102)-TV (antibody, human IgG1, kappa, L234A L235A, V domains shown, synthon TV on reduced interchain cysteines (sites not given)) VH: EVQLVESGGGLVQPGGSLRLSCATSGFTFIDYYMSWVRQAPGKGLEWLGFIRNKANRYTTEYSASVKGRFTISRDNSKSILYLQMNSLKTEDTAVYYCTRDRPAWFVYWGQGTLVTVSS VL: DIVMTQTPLSLPVTPGEPASISCKSSQSLLYSSNQKNYLAWYLQKPGQSPQLLIYWASTRESGVPDRFSGSGSGTDFTLKISRVEAEDVGVYYCQQYYSYPYTFGGGTKVEIKR	0.02 nM	1.5%
CD98 (CL-huAb104)-AAA (antibody, human IgG1, kappa, L234A L235A, V domains shown, synthon AAA on reduced interchain cysteines (sites not given)) VH: EVQLVESGGGLVQPGGSLRLSCATSGFTFIDYYMSWVRQAPGKGLEWLGFIRNKAYGYTTEYSASVKGRFTISRDNSKSILYLQMNSLKTEDTAVYYCTRDRPAWFVYWGQGTLVTVSS VL: DIVMTQTPLSLPVTPGEPASISCKSSQSLLYSSNQKNYLAWYLQKPGQSPQLLIYWASTRESGVPDRFSGSGSGTDFTLKISRVEAEDVGVYYCQQYYSYPYTFGGGTKVEIKR	0.04 nM	2.2%
CD98 (CL-huAb104)-TV (antibody, human IgG1, kappa, L234A L235A, V domains shown, synthon TV on reduced interchain cysteines (sites not given)) VH: EVQLVESGGGLVQPGGSLRLSCATSGFTFIDYYMSWVRQAPGKGLEWLGFIRNKAYGYTTEYSASVKGRFTISRDNSKSILYLQMNSLKTEDTAVYYCTRDRPAWFVYWGQGTLVTVSS VL: DIVMTQTPLSLPVTPGEPASISCKSSQSLLYSSNQKNYLAWYLQKPGQSPQLLIYWASTRESGVPDRFSGSGSGTDFTLKISRVEAEDVGVYYCQQYYSYPYTFGGGTKVEIKR	0.03 nM	1.4%
CD98 (CL-huAb102)-AAA (antibody, human IgG1, kappa, L234A L235A, V domains shown, synthon AAA on reduced interchain cysteines (sites not given)) VH: EVQLVESGGGLVQPGGSLRLSCATSGFTFIDYYMSWVRQAPGKGLEWLGFIRNKANRYTTEYSASVKGRFTISRDNSKSILYLQMNSLKTEDTAVYYCTRDRPAWFVYWGQGTLVTVSS VL: DIVMTQTPLSLPVTPGEPASISCKSSQSLLYSSNQKNYLAWYLQKPGQSPQLLIYWASTRESGVPDRFSGSGSGTDFTLKISRVEAEDVGVYYCQQYYSYPYTFGGGTKVEIKR	0.05 nM	2.4%

More lines, main results first:

Molt4 IC50	Binder	% Cell Viability at 50 nM
0.064 nM	CD98 (CL-huAb110)-CZ (antibody, human IgG1, kappa, L234A L235A, V domains shown, synthon CZ on reduced interchain cysteines (sites not given)) VH: EVQLVQSGAEVKKPGASVKVSCKASGFTFSDYTMAWVRQAPGQGLEWVATIIYDARGTYYRDAVKGRFTITRDNSTSTLYLELSSLRSEDTAVYYCARQSDDTYYYWGYFDYWGQGTMVTVSS VL: DIVMTQTPLSLPVTPGEPASINCKSSQSLLFSGNQKNYLAWYLQKPGQSPQLLIYWASTRQSGVPDRFSGSGSGTDFTLKISRVEAEDVGIYYCQQYYSSPYTFGQGTKLEIKR	0.8%
0.14 nM	CD98 (CL-huAb110)-TX (antibody, human IgG1, kappa, L234A L235A, V domains shown, synthon TX on reduced interchain cysteines (sites not given)) VH: EVQLVQSGAEVKKPGASVKVSCKASGFTFSDYTMAWVRQAPGQGLEWVATIIYDARGTYYRDAVKGRFTITRDNSTSTLYLELSSLRSEDTAVYYCARQSDDTYYYWGYFDYWGQGTMVTVSS VL: DIVMTQTPLSLPVTPGEPASINCKSSQSLLFSGNQKNYLAWYLQKPGQSPQLLIYWASTRQSGVPDRFSGSGSGTDFTLKISRVEAEDVGIYYCQQYYSSPYTFGQGTKLEIKR	2.5%
0.14 nM	CD98 (CL-huAb108)-YY (antibody, human IgG1, kappa, L234A L235A, V domains shown, synthon YY on reduced interchain cysteines (sites not given)) VH: EVQLVQSGAEVKKPGASVKVSCKASGFTFSDYTMAWVRQAPGQGLEWVATIIYSGRGTYYRDAVKGRFTITRDNSTSTLYLELSSLRSEDTAVYYCARQSDDTYYYWGYFDYWGQGTMVTVSS VL: DIVMTQTPLSLPVTPGEPASINCKSSQSLLFSGNQKNYLAWYLQKPGQSPQLLIYWASTRQSGVPDRFSGSGSGTDFTLKISRVEAEDVGIYYCQQYYDVPYTFGQGTKLEIKR	2.9%
0.16 nM	CD98 (CL-huAb110)-AAA (antibody, human IgG1, kappa, L234A L235A, V domains shown, synthon AAA on reduced interchain cysteines (sites not given)) VH: EVQLVQSGAEVKKPGASVKVSCKASGFTFSDYTMAWVRQAPGQGLEWVATIIYDARGTYYRDAVKGRFTITRDNSTSTLYLELSSLRSEDTAVYYCARQSDDTYYYWGYFDYWGQGTMVTVSS VL: DIVMTQTPLSLPVTPGEPASINCKSSQSLLFSGNQKNYLAWYLQKPGQSPQLLIYWASTRQSGVPDRFSGSGSGTDFTLKISRVEAEDVGIYYCQQYYSSPYTFGQGTKLEIKR	1.9%
0.15 nM	CD98 (CL-huAb108)-TX (antibody, human IgG1, kappa, L234A L235A, V domains shown, synthon TX on reduced interchain cysteines (sites not given)) VH: EVQLVQSGAEVKKPGASVKVSCKASGFTFSDYTMAWVRQAPGQGLEWVATIIYSGRGTYYRDAVKGRFTITRDNSTSTLYLELSSLRSEDTAVYYCARQSDDTYYYWGYFDYWGQGTMVTVSS VL: DIVMTQTPLSLPVTPGEPASINCKSSQSLLFSGNQKNYLAWYLQKPGQSPQLLIYWASTRQSGVPDRFSGSGSGTDFTLKISRVEAEDVGIYYCQQYYDVPYTFGQGTKLEIKR	3%
0.08 nM	CD98 (CL-huAb108)-TV (antibody, human IgG1, kappa, L234A L235A, V domains shown, synthon TV on reduced interchain cysteines (sites not given)) VH: EVQLVQSGAEVKKPGASVKVSCKASGFTFSDYTMAWVRQAPGQGLEWVATIIYSGRGTYYRDAVKGRFTITRDNSTSTLYLELSSLRSEDTAVYYCARQSDDTYYYWGYFDYWGQGTMVTVSS VL: DIVMTQTPLSLPVTPGEPASINCKSSQSLLFSGNQKNYLAWYLQKPGQSPQLLIYWASTRQSGVPDRFSGSGSGTDFTLKISRVEAEDVGIYYCQQYYDVPYTFGQGTKLEIKR	1.1%
0.13 nM	CD98 (CL-huAb110)-YY (antibody, human IgG1, kappa, L234A L235A, V domains shown, synthon YY on reduced interchain cysteines (sites not given)) VH: EVQLVQSGAEVKKPGASVKVSCKASGFTFSDYTMAWVRQAPGQGLEWVATIIYDARGTYYRDAVKGRFTITRDNSTSTLYLELSSLRSEDTAVYYCARQSDDTYYYWGYFDYWGQGTMVTVSS VL: DIVMTQTPLSLPVTPGEPASINCKSSQSLLFSGNQKNYLAWYLQKPGQSPQLLIYWASTRQSGVPDRFSGSGSGTDFTLKISRVEAEDVGIYYCQQYYSSPYTFGQGTKLEIKR	1.9%
0.09 nM	CD98 (CL-huAb110)-TV (antibody, human IgG1, kappa, L234A L235A, V domains shown, synthon TV on reduced interchain cysteines (sites not given)) VH: EVQLVQSGAEVKKPGASVKVSCKASGFTFSDYTMAWVRQAPGQGLEWVATIIYDARGTYYRDAVKGRFTITRDNSTSTLYLELSSLRSEDTAVYYCARQSDDTYYYWGYFDYWGQGTMVTVSS VL: DIVMTQTPLSLPVTPGEPASINCKSSQSLLFSGNQKNYLAWYLQKPGQSPQLLIYWASTRQSGVPDRFSGSGSGTDFTLKISRVEAEDVGIYYCQQYYSSPYTFGQGTKLEIKR	1%
